{
  "source": "paper PMC4451130",
  "key": {"[1]": {"molecular_target": "Glu-plasminogen (Plg) (human)", "sequence (P00747 20-810)": "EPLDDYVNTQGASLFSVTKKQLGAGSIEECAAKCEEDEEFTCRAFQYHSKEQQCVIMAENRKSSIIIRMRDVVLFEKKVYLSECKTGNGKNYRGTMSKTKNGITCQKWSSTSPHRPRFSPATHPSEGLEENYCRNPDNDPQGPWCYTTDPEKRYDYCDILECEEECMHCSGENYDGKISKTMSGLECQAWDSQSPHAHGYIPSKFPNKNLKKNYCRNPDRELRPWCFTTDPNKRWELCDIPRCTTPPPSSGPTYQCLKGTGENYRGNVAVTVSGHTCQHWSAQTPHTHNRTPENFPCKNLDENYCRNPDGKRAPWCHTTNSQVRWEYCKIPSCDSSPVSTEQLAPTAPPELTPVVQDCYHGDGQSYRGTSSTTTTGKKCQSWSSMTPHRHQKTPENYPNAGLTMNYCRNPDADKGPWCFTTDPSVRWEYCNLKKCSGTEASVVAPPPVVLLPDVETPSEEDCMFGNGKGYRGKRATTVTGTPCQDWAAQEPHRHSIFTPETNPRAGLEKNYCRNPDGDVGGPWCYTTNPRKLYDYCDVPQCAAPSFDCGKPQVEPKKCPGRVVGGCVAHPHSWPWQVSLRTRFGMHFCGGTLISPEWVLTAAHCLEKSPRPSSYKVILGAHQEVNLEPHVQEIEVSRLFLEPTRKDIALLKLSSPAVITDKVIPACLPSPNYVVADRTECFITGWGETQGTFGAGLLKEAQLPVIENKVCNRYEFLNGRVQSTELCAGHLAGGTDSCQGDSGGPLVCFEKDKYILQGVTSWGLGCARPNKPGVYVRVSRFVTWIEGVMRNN", "assay": "ELISA"}, "[2]": {"molecular_target": "Fibrinogen (FG), human plasma, plasminogen-depleted (human) (UniProt P02671)", "sequence (P02671 36-866, chain 1 of 3)": "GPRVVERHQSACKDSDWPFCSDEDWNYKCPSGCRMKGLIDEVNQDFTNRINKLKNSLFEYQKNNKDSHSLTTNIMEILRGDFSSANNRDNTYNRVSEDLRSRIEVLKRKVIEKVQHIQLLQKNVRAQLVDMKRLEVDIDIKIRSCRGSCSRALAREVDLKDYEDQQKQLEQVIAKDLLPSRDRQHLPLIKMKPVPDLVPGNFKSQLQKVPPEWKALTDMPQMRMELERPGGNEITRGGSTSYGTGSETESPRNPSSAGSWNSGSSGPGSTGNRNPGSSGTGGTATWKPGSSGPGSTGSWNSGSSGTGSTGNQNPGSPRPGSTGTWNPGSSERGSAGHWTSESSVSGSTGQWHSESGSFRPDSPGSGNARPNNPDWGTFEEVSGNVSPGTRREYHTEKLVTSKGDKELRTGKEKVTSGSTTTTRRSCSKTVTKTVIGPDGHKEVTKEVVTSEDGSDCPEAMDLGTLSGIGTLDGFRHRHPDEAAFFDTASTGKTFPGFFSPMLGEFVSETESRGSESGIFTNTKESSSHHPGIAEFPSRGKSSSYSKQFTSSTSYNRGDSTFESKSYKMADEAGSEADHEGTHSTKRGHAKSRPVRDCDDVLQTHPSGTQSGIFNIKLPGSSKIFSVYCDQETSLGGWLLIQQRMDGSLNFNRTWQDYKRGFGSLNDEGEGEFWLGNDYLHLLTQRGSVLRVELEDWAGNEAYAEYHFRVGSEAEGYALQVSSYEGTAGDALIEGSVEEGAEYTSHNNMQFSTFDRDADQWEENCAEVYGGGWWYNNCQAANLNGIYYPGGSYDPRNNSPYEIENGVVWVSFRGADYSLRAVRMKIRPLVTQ", "sequence (P02675 45-491, chain 2 of 3, further chain)": "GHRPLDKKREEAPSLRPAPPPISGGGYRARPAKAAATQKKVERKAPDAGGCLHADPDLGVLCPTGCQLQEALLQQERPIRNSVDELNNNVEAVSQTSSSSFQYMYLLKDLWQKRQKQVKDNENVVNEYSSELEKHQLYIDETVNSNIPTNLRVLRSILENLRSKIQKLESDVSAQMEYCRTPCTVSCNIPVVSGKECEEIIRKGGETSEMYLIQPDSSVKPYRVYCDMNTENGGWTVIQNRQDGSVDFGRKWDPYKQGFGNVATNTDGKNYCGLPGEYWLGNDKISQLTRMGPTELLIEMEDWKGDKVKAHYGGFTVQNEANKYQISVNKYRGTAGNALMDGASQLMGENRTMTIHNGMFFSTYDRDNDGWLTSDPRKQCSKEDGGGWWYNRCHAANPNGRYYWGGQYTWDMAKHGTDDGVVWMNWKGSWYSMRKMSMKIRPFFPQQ", "sequence (P02679 27-453, chain 3 of 3, further chain)": "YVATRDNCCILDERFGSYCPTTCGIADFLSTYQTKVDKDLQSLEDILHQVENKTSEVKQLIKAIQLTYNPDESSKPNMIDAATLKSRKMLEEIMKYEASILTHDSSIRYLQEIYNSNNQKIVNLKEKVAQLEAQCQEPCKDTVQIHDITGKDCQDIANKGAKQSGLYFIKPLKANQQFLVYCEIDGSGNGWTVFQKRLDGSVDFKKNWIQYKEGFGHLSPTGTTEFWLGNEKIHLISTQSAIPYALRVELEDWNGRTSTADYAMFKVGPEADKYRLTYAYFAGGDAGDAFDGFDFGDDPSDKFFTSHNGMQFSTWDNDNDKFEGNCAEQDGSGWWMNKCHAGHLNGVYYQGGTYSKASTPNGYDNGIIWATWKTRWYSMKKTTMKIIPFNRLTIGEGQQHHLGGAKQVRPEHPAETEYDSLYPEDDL", "assay": "ELISA"}},
  "data": [
    {"substance": "Biotin-conjugated PTX3 (b-PTX3) (from UniProt P26022 18-381) (natural protein)", "values": [
      {"measurement": "Kd", "setting": "[1]", "value": 0.0667, "unit": "µM"},
      {"measurement": "Kd", "setting": "[2]", "value": 0.0312, "unit": "µM"}
    ]}
  ]
}
